Measured values reported in US20210252159A1, “CONJUGATES OF CARTILAGE-HOMING PEPTIDES” (priority 2018, published 2021).
Like-named read-outs stand apart in the source and are kept apart here. Positions of bridges follow the written chain, without caps; N, C: chain ends. Residues, ends and D or L forms follow the SMILES beside them. *: point of attachment. X2 = CC(CCC(C)C(=O)*)C(=O)OCC(=O)[C@@]12O[C@H](C3CCCCC3)O[C@@H]1C[C@H]1[C@@H]3CCC4=CC(=O)C=C[C@]4(C)[C@H]3[C@@H](O)C[C@@]12C

Key:
[1] = Hydrolysis assay of peptide-drug conjugates in rat plasma (free drug by LC/MS); assay type: in vitro ADME; details: rat plasma, 37° C., read-out: half-life (in vitro hydrolysis, free dCIC) (converted)
Description: Peptide-drug conjugate peptide(SEQ ID NO: 105)-DMA-dCIC was incubated in rat plasma at 37° C. Samples were removed at regular intervals, processed by solvent extraction, and analyzed by LC/MS to quantitate free dCIC. 11 time-points were measured between 5 min and 56 hours with 3 replicates per time point. The assay was repeated two times.
In order to determine hydrolysis rates, conjugates can be diluted in PBS, rat plasma, or human plasma and incubated at 37 degrees. Samples can be taken at designated time-points (e.g., 1, 2, 3, 5, 10, 15, 20, 25, 30, 45, 60, or 90 minutes and/or hours after administration). Internal standards such as triamcinolone acetonide (TAA) can be added as an internal standard, and then active agent/TAA can be extracted using acetonitrile, for example. The samples can be dried down, reconstituted, and analyzed by LC/MS. Data can be normalized using Dex AUC/TAA AUC. Percent hydrolysis can be calculated using the average ratio for active agent AUC/TAA AUC at a time point of maximal drug release. A general method can include using a lyophilized, purified peptide-drug conjugates reconstituted in DMSO following production to generate stock solution at 20 mg/mL. Each conjugate stock can be brought to 0.25 mg/mL in each hydrolysis condition (1×DPBS, human plasma and rat plasma) in triplicate and rocked at 37° C. To quantitate free active agent, 100 μl of the hydrolyzed conjugate solution can be transferred into 1 mL acetonitrile at 4° C. at which time all plasma proteins and intact conjugates can precipitate. This can be performed repeatedly to generate a series of time points (0 hr, 0.5 hr, 1 hr, 2 hr, 4 hr, 6 hr, 8 hr, 24 hr, 32 hr). The acetonitrile solution can be spun at 17,000 g for 5 minutes, and the supernatant removed and added to a 96 well block. The pellet can then be resuspended in 500 μl acetonitrile and re-pelleted as before. The supernatant can be removed and added to the same well in the block. Samples can be prepared for analysis by drying under a nitrogen stream followed by reconstitution in 110 μl 45:55 ACN:Citrate 10 mM pH 5.5. To ensure optimal recovery the block can be shaken via plate shaker at 7,000 rpm for 5 minutes during the reconstitution step. Prior to LC/MS the samples can be transferred to a 96 well plate and centrifuged at 6,500 g for 15 minutes. Analysis can be performed on an Agilent 1260 Infinity series HPLC with inline 6120 single quad MS using acetonitrile, water (+0.1% TFA) gradient (shown below) on an InfinityLab Poroshell SB-C18 column. Quantification of free active agent (or drug) can be achieved through integration of active agent peaks of the TIC.
Lyophilized, purified peptide-drug conjugates were reconstituted in DMSO following production to generate stock solution at 20 mg/mL. Each conjugate stock was brought to 0.25 mg/mL in each hydrolysis condition (1×DPBS, human plasma and rat plasma) in triplicate and rocked at 37° C.
To quantitate free dexamethasone (Dex), 100 μl of the hydrolyzed conjugate solution was transferred into 1 mL acetonitrile at 4° C. at which time all plasma proteins and intact conjugates precipitated. This was performed repeatedly to generate a series of time points (0 hr, 0.5 hr, 1 hr, 2 hr, 4 hr, 6 hr, 8 hr, 24 hr, 32 hr). The corticosteroid triamcinolone acetonide (25 μl, 0.1 mg/mL in 45:55 ACN:Citrate 10 mM pH 5.5) was supplemented into the acetonitrile solution as an internal standard. The acetonitrile solution was spun at 17,000 g for 5 minutes, and the supernatant removed and added to a 96 well block. The pellet was resuspended in 500 μl acetonitrile and re-pelleted as before. The supernatant was removed and added to the same well in the block.
Samples were prepared for analysis by drying under a nitrogen stream followed by reconstitution in 110 μl 45:55 ACN:Citrate 10 mM pH 5.5. To ensure optimal recovery the block was shaken via plate shaker at 7,000 rpm for 5 minutes during the reconstitution step. […]

[2] = Solubility for formulation; assay type: physicochemical; details: aqueous formulation for systemic delivery
From the text: This study was designed to test whether dCIC delivered by a peptide would enable local suppression of inflammation in the joint while reducing systemic exposure to dCIC compared to that obtained when dosing therapeutic levels of dCIC alone. To enable systemic delivery of dCIC (unconjugated), it was formulated in 40% propylene glycol and then heated in order to solubilize the molecule. […] The peptide-drug conjugates of the disclosure can have a water solubility that allows conjugates to be formulated for systemic delivery, wherein at least some of the drugs used in the peptide-drug conjugates may not have sufficient water solubility for systemic administration when not conjugated to peptide. The conjugates comprising those drugs can home, target, migrate to, accumulate in, bind to, be retained by, or be redirected to a cartilage of a subject.

IL-6 = assay type: in vivo, rats; details: Dex 1274 and 127 nmol/kg IV; dCIC 1274 nmol/kg IA or 127 nmol/kg IV; conjugate 127, 51 and 13 nmol/kg IV; four hours after IL-1β
Description: In this example, an IL-1β Challenge rat model was used for the evaluation of peptides-drug conjugates. In this model, IL-1β is injected intra-articularly (i.e., IA) into a single knee joint to induce an inflammatory state that can be quantified by measuring IL-6 levels in joint lavage fluid (EXAMPLE 30). The primary goal of using this model was to induce a localized inflammatory state in the joint, as opposed to the systemic inflammation induced in other models, as a way to differentiate localized delivery of dCIC to the joint from systemic administration of the steroid. […] CBC counts were used to assess any reductions in various white blood cell levels, which are established markers of systemic exposure to glucocorticoids. […]
IL-6 was measured in knee lavage fluid using a Luminex assay and levels were normalized to total protein in the lavage fluid (FIG. 24). […] Terminal synovial fluid was collected from all animals and analyzed by Luminex 200 for IL-6 cytokine concentrations using EMD Milliplex MAP Rat Cytokine/Chemokine Magnetic Panel ([sequence]-65K). […] Thymus and spleen were harvested and their organ weights determined.

[3] = IL-1β challenge rat model, dose-ranging study: CBC, organ weights, tolerability; assay type: in vivo, rats
Description: IL-6 was measured in knee lavage fluid using a Luminex assay and levels were normalized to total protein in the lavage fluid (FIG. 24). Assessment of the PD inflammatory marker IL-6 in the knee joints of rats challenged with IL-1β was performed. Terminal synovial fluid was collected from all animals and analyzed by Luminex 200 for IL-6 cytokine concentrations using EMD Milliplex MAP Rat Cytokine/Chemokine Magnetic Panel ([…]-65K). […] Doses are listed as nmol/kg The masses of these doses are given below in TABLE 16. Two hours and forty-five minutes (i.e., 2.75 hrs) after administration of the test agents, animals were gently heated and blood was drawn from the tail vein for CBC analysis. Animals were then anesthetized with inhaled isoflurane and injected with 30 ng of IL-1β into the right knee (except for no IL-1β group). Four hours after administration of IL-1β (seven hours after administration of test agent) the animals were euthanized. Blood was drawn for a second CBC analysis and the right knee was lavaged for detection of IL-6 in the lavage fluid using a Luminex assay. Thymus and spleen were harvested and their organ weights determined.
In the same animals for which IL-6 secretion was measured, CBC data (e.g., lymphocyte counts) were also analyzed (FIG. 25) at an early time-point, 2.75 hrs post administration of the test article (FIG. 25A), and at euthanasia 7 hrs post administration (FIG. 25B). All treatments were administered as described above for the measurement of IL-6 secretion.
All treatments and test articles were administered as described above, except for an additional treatment group that received 510 nmol/kg of the peptide-drug conjugate peptide(SEQ ID NO: 105)-DMA-dCIC.

[4] = IL-1β challenge rat model, follow-up study: WBC, lymphocyte and monocyte counts; assay type: in vivo, rats; details: 2.75 hours; peptide 127, conjugate 51 and 13 nmol/kg IV; dCIC 1274 IA, 127 and 51 IV
Description: This study was conducted in an identical manner to the dose-ranging study described further above in this EXAMPLE with regard to timing of test agent administration, collection of blood for CBC, injection of IL-1β, and lavage of the knee following euthanasia. In this study, the blood collected at euthanasia was submitted for both CBC and serum chemistry, and thymus and spleen weights were not measured because there was no evidence of treatment effect for dCIC and peptide-dCIC on these organs in the dose-ranging study. Assessment of biomarkers of steroid exposure in blood of rats as part of a PD study as shown in FIG. 27: # denotes dose administered by IA injection, all other treatments were administered IV. The treatment groups included the following test articles: (i) no IL-1β negative control (denoted “No IL-1b”); (ii); vehicle only control for the peptide-drug conjugate (denoted as “vehicle”), which was (5% DMSO in PBS); (iii) the peptide-only control peptide(SEQ ID NO: 105) at 127 nmol/kg (denoted over “Peptide” as “127”); (iv) 3 dose levels of dCIC, 1274 nmol/kg IA, 127 nmol/kg IV, 51 nmol/kg IV (denoted over “dCIC” as “1274 #”, “127” and “51” respectively); (v) and 2 dose levels of peptide(SEQ ID NO: 105)-DMA-dCIC (51 nmol/kg, 13 nmol/kg) (denoted over “Peptide(SEQ ID NO: 105)-DMA-dCIC” as “51” and “13” respectively), each of (i)-(v) with n=10 animals per dose group, except for no Il-1β control and peptide-only control arms which had n=6 animals per dose group. Doses are listed as nmol/kg. Statistical analysis was conducted using Wilcoxon rank-sum test with correction for multiple comparisons using Holm's method.

## CC[C@H](C)[C@@H]1NC(=O)[C@@H]2CSSC[C@H](NC(=O)[C@H](CCCNC(=N)N)NC(=O)[C@@H](NC(=O)[C@H](CC(N)=O)NC(=O)[C@@H](NC(=O)[C@@H]3CCCN3C(=O)[C@@H](NC(=O)CNC(=O)[C@H](CO)NC(=O)CNC(=O)C(C)CCC(C)C(=O)OCC(=O)[C@@]34O[C@H](C5CCCCC5)O[C@@H]3C[C@H]3[C@@H]5CCC6=CC(=O)C=C[C@]6(C)[C@H]5[C@@H](O)C[C@@]34C)C(C)C)[C@@H](C)CC)C(C)C)C(=O)N[C@@H](CCCNC(=N)N)C(=O)NCC(=O)N[C@@H](CO)C(=O)N[C@@H](CCCNC(=N)N)C(=O)N[C@@H](CC(=O)O)C(=O)N[C@H]3CSSC[C@H](NC(=O)[C@H](CCCNC(=N)N)NC(=O)[C@H](CO)NC(=O)[C@H](CC(N)=O)NC1=O)C(=O)N[C@@H](Cc1c[nH]cn1)C(=O)N[C@H](C(=O)N[C@H](C(=O)N1CCC[C@H]1C(=O)O)[C@@H](C)O)CSSC[C@H](NC(=O)[C@@H]1CCCN1C(=O)[C@H](CC(=O)O)NC(=O)[C@H](CC(C)C)NC3=O)C(=O)N[C@@H](CCCNC(=N)N)C(=O)N[C@@H](CCCNC(=N)N)C(=O)N[C@@H](C)C(=O)NCC(=O)N[C@@H](CCSC)C(=O)N[C@@H](CCCNC(=N)N)C(=O)N[C@@H](Cc1ccccc1)C(=O)NCC(=O)N[C@@H](CCCNC(=N)N)C(=O)N2 (some centres unmarked) [Compound 46, peptide(SEQ ID NO: 105)-DMA-dCIC] (X2-GSGVPINVRCRGSRDCLDPCRRAGMRFGRCINSRCHCTP-OH; disulfide 10-30, 16-35, 20-37 (inferred); C-terminus assumed)
[1]; first assay, acetonitrile extraction of dCIC
  half-life at 0.25 mg/mL: 8.5 h
[1]; second assay, ethyl acetate extraction of dCIC
  half-life at 0.25 mg/mL: 5 h
[2]
  solubility: soluble in PBS
IL-6
  IL-6 concentration in knee lavage fluid normalized to total protein, compared to vehicle: clear reduction in IL-6 concentration
[3]; 2.75 hours post-treatment
  monocytes (CBC): dose-dependent increase
[3]; 2.75 hours post-treatment, higher doses
  neutrophils (CBC): dose-dependent increase
[3]; 2.75 hrs post administration, equimolar dose of 127 nmol/kg
  effect on lymphocyte counts as compared to Dex and dCIC alone: less effect on lymphocyte counts
[3]; 7 hours post administration
  spleen and thymus weights at euthanasia: minimal effect on the weight of both organs
[3]; highest dose group (1274 nmol/kg IV)
  mortality: died within 30 minutes of dosing
[3]; lower effective doses (13-51 nmol/kg)
  CBC counts and all observations: normal
[3]; second highest dose group (510 nmol/kg), within 30-90 minutes of dosing
  mortality: three out of five animals

## C[C@]12C=CC(=O)C=C1CC[C@@H]1[C@@H]2[C@@H](O)C[C@@]2(C)[C@H]1C[C@H]1O[C@@H](C3CCCCC3)O[C@]12C(=O)CO [dCIC, des-ciclesonide]
[4]
  Total WBC counts: substantial reduction
  lymphocyte counts: substantial reduction
  monocyte counts: substantial reduction
[2]
  solubility: not soluble in water
IL-6
  IL-6 concentration in knee lavage fluid normalized to total protein, compared to vehicle: decrease in IL-6 concentrations
[3]; 2.75 hours post-treatment
  monocytes (CBC): dose dependent decrease
[3]; 2.75 hrs post administration, Dex both doses, dCIC IA or IV
  Lymphocyte counts as compared to vehicle control: reduction in lymphocyte counts
[3]; 7 hours post administration
  spleen and thymus weights at euthanasia: minimal effect on the weight of both organs
[3]; 7 hours post administration, all dose levels
  Lymphocyte counts at euthanasia: either stable or starting to recover
